In publication PMC6555819, “Comprehensive study of nuclear receptor DNA binding provides a revised framework for understanding receptor specificity”:
Residue numbers refer to the chain shown, from its start.

B1: NRC3_random_hg19_393_o1 (dsDNA)
DNA 1: GCTCCCAGCCACTCAGGAGGCTGAGGCAGGAGAATTGCGATTGACAGCGTAGAATGAAGG
DNA 2: CCTTCATTCTACGCTGTCAATCGCAATTCTCCTGCCTCAGCCTCCTGAGTGGCTGGGAGC
B2: NRC3_wobSeed28_DR1_C4T_o1 (dsDNA)
DNA 1: GCCTTACTGGGCCAAAGGTCATTGATTCCAATGCTCGCGATTGACAGCGTAGAATGAAGG
DNA 2: CCTTCATTCTACGCTGTCAATCGCGAGCATTGGAATCAATGACCTTTGGCCCAGTAAGGC
B3: NRC3_wobSeed15_DR0_G11T_o1 (dsDNA)
DNA 1: GCCGAACTAGTTCAAGGACAGTGAATCTCCGCACGCGCGATTGACAGCGTAGAATGAAGG
DNA 2: CCTTCATTCTACGCTGTCAATCGCGCGTGCGGAGATTCACTGTCCTTGAACTAGTTCGGC
B4: NRC3_wobSeed39_DR1_A19G_o1 (dsDNA)
DNA 1: GCCGAACTAGGTCAAAGGGCAGTGAAAGGCGACGTAGCGATTGACAGCGTAGAATGAAGG
DNA 2: CCTTCATTCTACGCTGTCAATCGCTACGTCGCCTTTCACTGCCCTTTGACCTAGTTCGGC
B5: NRC3_wobSeed47_DR1_G8T_o1 (dsDNA)
DNA 1: GCGGAACTAGGGCAAAGTTGATAGCATCTGTCGACGGCGATTGACAGCGTAGAATGAAGG
DNA 2: CCTTCATTCTACGCTGTCAATCGCCGTCGACAGATGCTATCAACTTTGCCCTAGTTCCGC
B6: NRC3_wobSeed32_DR1_T20C_o1 (dsDNA)
DNA 1: GCTCTTGTAGATCAAAGGTCAAGAAAGCCGAAGCCTGCGATTGACAGCGTAGAATGAAGG
DNA 2: CCTTCATTCTACGCTGTCAATCGCAGGCTTCGGCTTTCTTGACCTTTGATCTACAAGAGC
B7: NRC3_wobSeed27_DR1_C6T_o1 (dsDNA)
DNA 1: GCACTTGGAGGACAAAGGTCAGAGCTACGCCAGTGAGCGATTGACAGCGTAGAATGAAGG
DNA 2: CCTTCATTCTACGCTGTCAATCGCTCACTGGCGTAGCTCTGACCTTTGTCCTCCAAGTGC
B8: NRC3_wobSeed27_DR1_C6A_o1 (dsDNA)
DNA 1: B7 DNA 1 with T6A
DNA 2: B7 DNA 2 with A55T
B9: NRC3_random_hg19_62_o1 (dsDNA)
DNA 1: GCAGATGGGAGAGTTCCCTTGATTCCTTTGTGGGAGGCGATTGACAGCGTAGAATGAAGG
DNA 2: CCTTCATTCTACGCTGTCAATCGCCTCCCACAAAGGAATCAAGGGAACTCTCCCATCTGC
B10: NRC3_wobSeed41_DR1_T13G_o1 (dsDNA)
DNA 1: GCATATGTAGGTGAAGGGTCATTCAGGTTGGTTCGCGCGATTGACAGCGTAGAATGAAGG
DNA 2: CCTTCATTCTACGCTGTCAATCGCGCGAACCAACCTGAATGACCCTTCACCTACATATGC
B11: NRC3_wobSeed1_DR0_G23T_o1 (dsDNA)
DNA 1: GCCAAACTAGGTCAAGGTCAAATTCGGTTTGTGCCAGCGATTGACAGCGTAGAATGAAGG
DNA 2: CCTTCATTCTACGCTGTCAATCGCTGGCACAAACCGAATTTGACCTTGACCTAGTTTGGC
B12: NRC3_wobSeed1_DR0_C7G_o1 (dsDNA)
DNA 1: B11 DNA 1 with C7G, T23G
DNA 2: B11 DNA 2 with A38C, G54C
B13: NRC3_wobSeed1_DR0_A4T_o1 (dsDNA)
DNA 1: B11 DNA 1 with A4T, T23G
DNA 2: B11 DNA 2 with A38C, T57A
B14: NRC3_wobSeed1_DR0_C25A_o1 (dsDNA)
DNA 1: B11 DNA 1 with T23G, C25A
DNA 2: B11 DNA 2 with G36T, A38C
B15: NRC3_wobSeed33_DR1_C5A_o1 (dsDNA)
DNA 1: GCATATCTAGGTAAAAGTTCAGTGAATCCCGAGGATGCGATTGACAGCGTAGAATGAAGG
DNA 2: CCTTCATTCTACGCTGTCAATCGCATCCTCGGGATTCACTGAACTTTTACCTAGATATGC
B16: NRC3_wobSeed65_DR2_T13C_o1 (dsDNA)
DNA 1: GCATATGTAGGTCATCGGGTCATTCAGTTTGCGCATGCGATTGACAGCGTAGAATGAAGG
DNA 2: CCTTCATTCTACGCTGTCAATCGCATGCGCAAACTGAATGACCCGATGACCTACATATGC
B17: NRC3_wobSeed30_DR1_G16A_o1 (dsDNA)
DNA 1: GCACTAGCAGGCCAAAGGTCACTCAAGATTAGTCCGGCGATTGACAGCGTAGAATGAAGG
DNA 2: CCTTCATTCTACGCTGTCAATCGCCGGACTAATCTTGAGTGACCTTTGGCCTGCTAGTGC
B18: NRC3_wobSeed35_DR1_T11G_o1 (dsDNA)
DNA 1: GCGCTATTAGGTGAAAGGGCAACCGAATGATTCTCGGCGATTGACAGCGTAGAATGAAGG
DNA 2: CCTTCATTCTACGCTGTCAATCGCCGAGAATCATTCGGTTGCCCTTTCACCTAATAGCGC
B19: NRC3_wobSeed133_DR5_T12A_o1 (dsDNA)
DNA 1: GCCGTCCAAGGACAATGCTAGGTCAGTGAAAGCATTGCGATTGACAGCGTAGAATGAAGG
DNA 2: CCTTCATTCTACGCTGTCAATCGCAATGCTTTCACTGACCTAGCATTGTCCTTGGACGGC
B20: NRC3_wobSeed66_DR2_C20T_o1 (dsDNA)
DNA 1: GCAATACAGGGTCACTAGGTCAGAGTAGGTACGAATGCGATTGACAGCGTAGAATGAAGG
DNA 2: CCTTCATTCTACGCTGTCAATCGCATTCGTACCTACTCTGACCTAGTGACCCTGTATTGC
B21: NRC3_wobSeed17_DR0_T13C_o1 (dsDNA)
DNA 1: GCATATGTAGGTCAGGGTCATTCAGAAAGTAGGGAAGCGATTGACAGCGTAGAATGAAGG
DNA 2: CCTTCATTCTACGCTGTCAATCGCTTCCCTACTTTCTGAATGACCCTGACCTACATATGC
B22: NRC3_random_hg19_447_o1 (dsDNA)
DNA 1: GCCTCTCTTTCTCTCTCTCTCTCTCTCTCTCTCTCTGCGATTGACAGCGTAGAATGAAGG
DNA 2: CCTTCATTCTACGCTGTCAATCGCAGAGAGAGAGAGAGAGAGAGAGAGAGAAAGAGAGGC
B23: NRC3_wobSeed89_DR3_T13G_o1 (dsDNA)
DNA 1: GCCTATGTAGGTGAAGGGGGTCATTCAGTTTGAAAGGCGATTGACAGCGTAGAATGAAGG
DNA 2: CCTTCATTCTACGCTGTCAATCGCCTTTCAAACTGAATGACCCCCTTCACCTACATAGGC
B24: NRC3_random_hg19_249_o1 (dsDNA)
DNA 1: GCTTTCCCACAATGTGTAGTTAGAGTTTGAGTTGTGGCGATTGACAGCGTAGAATGAAGG
DNA 2: CCTTCATTCTACGCTGTCAATCGCCACAACTCAAACTCTAACTACACATTGTGGGAAAGC
B25: NRC3_wobSeed121_DR5_C7G_o1 (dsDNA)
DNA 1: GCCAAAGTAGGTCACCGGAAGGTCAAAGTCCGCATGGCGATTGACAGCGTAGAATGAAGG
DNA 2: CCTTCATTCTACGCTGTCAATCGCCATGCGGACTTTGACCTTCCGGTGACCTACTTTGGC
B26: NRC3_wobSeed121_DR5_A4T_o1 (dsDNA)
DNA 1: B25 DNA 1 with A4T, G7C
DNA 2: B25 DNA 2 with C54G, T57A
B27: NRC3_wobSeed40_DR1_A4G_o1 (dsDNA)
DNA 1: GCTGGCCTAGGTCATGGGCCAGTATACCACGCGAACGCGATTGACAGCGTAGAATGAAGG
DNA 2: CCTTCATTCTACGCTGTCAATCGCGTTCGCGTGGTATACTGGCCCATGACCTAGGCCAGC
B28: NRC3_wobSeed26_DR1_C4T_o1 (dsDNA)
DNA 1: GCTTTAGTTGGTCAAAGGTCACACACTCGAAATGCGGCGATTGACAGCGTAGAATGAAGG
DNA 2: CCTTCATTCTACGCTGTCAATCGCCGCATTTCGAGTGTGTGACCTTTGACCAACTAAAGC

biological target: PPARg:RXRa (Homo sapiens, UniProt P37231;P19793 full;full); assay: no ligand; PBM; 180 nM : 90 nM RXRa; PBS pH 7.4, 2% milk, 0.02% Triton X-100, 1 mM DTT, BSA, 0.4 mg/ml salmon testes DNA; conditions: tags: His kept;His cleaved; copies: 1;1; label: surface-attached array probe
Sequence (P37231 29-505, chain 1 of 2): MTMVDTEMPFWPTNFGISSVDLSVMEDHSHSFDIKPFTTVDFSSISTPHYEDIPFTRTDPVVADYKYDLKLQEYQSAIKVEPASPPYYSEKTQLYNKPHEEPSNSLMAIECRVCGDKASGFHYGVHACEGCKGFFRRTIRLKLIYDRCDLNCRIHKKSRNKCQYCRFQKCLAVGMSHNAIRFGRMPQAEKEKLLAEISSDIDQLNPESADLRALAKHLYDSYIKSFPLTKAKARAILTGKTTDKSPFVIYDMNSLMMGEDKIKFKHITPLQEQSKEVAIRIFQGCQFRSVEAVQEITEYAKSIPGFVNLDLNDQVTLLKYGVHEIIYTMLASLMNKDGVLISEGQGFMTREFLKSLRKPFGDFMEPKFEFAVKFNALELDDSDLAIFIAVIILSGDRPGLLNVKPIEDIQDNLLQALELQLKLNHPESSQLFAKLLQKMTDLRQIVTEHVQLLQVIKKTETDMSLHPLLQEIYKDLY
Sequence (P19793 whole entry, chain 2 of 2): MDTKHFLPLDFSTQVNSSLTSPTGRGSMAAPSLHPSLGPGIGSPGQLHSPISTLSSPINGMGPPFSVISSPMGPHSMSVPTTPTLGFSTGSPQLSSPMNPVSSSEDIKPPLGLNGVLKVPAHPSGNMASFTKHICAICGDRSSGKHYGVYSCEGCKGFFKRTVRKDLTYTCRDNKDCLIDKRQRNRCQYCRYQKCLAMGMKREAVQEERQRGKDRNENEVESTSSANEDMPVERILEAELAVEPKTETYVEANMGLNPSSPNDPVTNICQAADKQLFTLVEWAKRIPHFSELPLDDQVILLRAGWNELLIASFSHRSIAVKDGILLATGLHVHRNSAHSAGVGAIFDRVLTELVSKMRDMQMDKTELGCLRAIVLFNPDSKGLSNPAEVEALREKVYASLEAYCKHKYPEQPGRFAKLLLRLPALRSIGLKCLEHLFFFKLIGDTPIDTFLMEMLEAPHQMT

In order of rising binding signal:
1. B22  -3.64 PBM z-score against 500 random probes
2. B1  -0.69 PBM z-score against 500 random probes
3. B9  -0.56 PBM z-score against 500 random probes
4. B24  -0.37 PBM z-score against 500 random probes
5. B19  0.18 PBM z-score against 500 random probes
6. B3  0.49 PBM z-score against 500 random probes
7. B27  3.34 PBM z-score against 500 random probes
8. B23  9.64 PBM z-score against 500 random probes
9. B21  9.79 PBM z-score against 500 random probes
10. B18  9.85 PBM z-score against 500 random probes
11. B20  9.89 PBM z-score against 500 random probes
12. B6  9.91 PBM z-score against 500 random probes
13. B14  9.94 PBM z-score against 500 random probes
14. B5  10 PBM z-score against 500 random probes
15. B8  10 PBM z-score against 500 random probes
16. B12  10 PBM z-score against 500 random probes
17. B13  10 PBM z-score against 500 random probes
18. B7  10.1 PBM z-score against 500 random probes
19. B15  10.1 PBM z-score against 500 random probes
20. B11  10.2 PBM z-score against 500 random probes
21. B16  10.2 PBM z-score against 500 random probes
22. B17  10.2 PBM z-score against 500 random probes
23. B26  10.2 PBM z-score against 500 random probes
24. B25  10.4 PBM z-score against 500 random probes
25. B28  12.1 PBM z-score against 500 random probes
26. B4  12.3 PBM z-score against 500 random probes
27. B10  12.8 PBM z-score against 500 random probes
28. B2  12.9 PBM z-score against 500 random probes

biological target: RARg:RXRa (Homo sapiens, UniProt P13631;P19793 full;full); assay: no ligand; PBM; 270 nM : 90 nM RXRa; PBS pH 7.4, 2% milk, 0.02% Triton X-100, 1 mM DTT, BSA, 0.4 mg/ml salmon testes DNA; conditions: tags: His kept;His cleaved; copies: 1;1; label: surface-attached array probe
Sequence (P13631 whole entry, chain 1 of 2): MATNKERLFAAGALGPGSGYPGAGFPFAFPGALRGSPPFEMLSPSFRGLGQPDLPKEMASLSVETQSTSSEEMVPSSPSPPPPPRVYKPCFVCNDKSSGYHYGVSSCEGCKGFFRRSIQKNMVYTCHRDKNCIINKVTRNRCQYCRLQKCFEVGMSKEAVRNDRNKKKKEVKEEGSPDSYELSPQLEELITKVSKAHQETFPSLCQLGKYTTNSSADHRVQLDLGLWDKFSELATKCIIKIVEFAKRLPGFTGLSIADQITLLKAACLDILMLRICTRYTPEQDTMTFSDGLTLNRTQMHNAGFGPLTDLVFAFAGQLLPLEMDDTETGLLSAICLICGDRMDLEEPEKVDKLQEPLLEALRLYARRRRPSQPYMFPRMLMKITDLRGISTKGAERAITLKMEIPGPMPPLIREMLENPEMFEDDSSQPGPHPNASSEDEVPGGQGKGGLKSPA
Sequence (P19793 whole entry, chain 2 of 2): as the sequence (P19793 whole entry, chain 2 of 2) above
In short: (§1)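 On custom Agilent 4×180K arrays, double-stranded probes with 34-nt variable regions carried direct-repeat seeds, single-nucleotide variants, half-site ablations or random human genomic background. Ligand-free nuclear receptor dimers were applied for 1 h, and binding was read with antibodies against each partner (one per run). Binding z-scores come from regression-normalized fluorescence, with the random background probes as reference.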

In order of rising binding signal:
1. B22  -0.31 PBM z-score against 500 random probes
2. B24  -0.1 PBM z-score against 500 random probes
3. B27  4.24 PBM z-score against 500 random probes

biological target: FXR:RXRa (Homo sapiens, UniProt Q96RI1;P19793 full;full); assay: as above; conditions: tags: His kept;His cleaved; copies: 1;1; label: surface-attached array probe
Sequence (Q96RI1 whole entry, chain 1 of 2): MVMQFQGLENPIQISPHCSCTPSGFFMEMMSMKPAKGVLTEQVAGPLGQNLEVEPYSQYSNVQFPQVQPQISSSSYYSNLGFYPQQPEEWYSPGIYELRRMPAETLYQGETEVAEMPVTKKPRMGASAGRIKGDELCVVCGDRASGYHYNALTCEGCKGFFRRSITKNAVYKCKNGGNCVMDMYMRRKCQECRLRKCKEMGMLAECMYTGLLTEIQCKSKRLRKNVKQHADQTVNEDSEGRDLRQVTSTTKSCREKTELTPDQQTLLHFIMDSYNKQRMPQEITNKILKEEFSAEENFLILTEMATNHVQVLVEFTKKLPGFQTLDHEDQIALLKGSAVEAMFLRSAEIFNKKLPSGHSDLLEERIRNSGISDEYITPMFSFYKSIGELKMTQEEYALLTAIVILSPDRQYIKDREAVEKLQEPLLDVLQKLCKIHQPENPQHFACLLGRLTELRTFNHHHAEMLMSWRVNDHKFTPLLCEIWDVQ
Sequence (P19793 whole entry, chain 2 of 2): as the sequence (P19793 whole entry, chain 2 of 2) above
In short: as §1

In order of falling binding signal:
1. B19  0.29 PBM z-score against 500 random probes
2. B1  -1.65 PBM z-score against 500 random probes

biological target: PPARa:RXRa (Homo sapiens, UniProt Q07869;P19793 full;full); assay: as above; conditions: tags: GST kept;His cleaved; copies: 1;1; label: surface-attached array probe
Sequence (Q07869 whole entry, chain 1 of 2): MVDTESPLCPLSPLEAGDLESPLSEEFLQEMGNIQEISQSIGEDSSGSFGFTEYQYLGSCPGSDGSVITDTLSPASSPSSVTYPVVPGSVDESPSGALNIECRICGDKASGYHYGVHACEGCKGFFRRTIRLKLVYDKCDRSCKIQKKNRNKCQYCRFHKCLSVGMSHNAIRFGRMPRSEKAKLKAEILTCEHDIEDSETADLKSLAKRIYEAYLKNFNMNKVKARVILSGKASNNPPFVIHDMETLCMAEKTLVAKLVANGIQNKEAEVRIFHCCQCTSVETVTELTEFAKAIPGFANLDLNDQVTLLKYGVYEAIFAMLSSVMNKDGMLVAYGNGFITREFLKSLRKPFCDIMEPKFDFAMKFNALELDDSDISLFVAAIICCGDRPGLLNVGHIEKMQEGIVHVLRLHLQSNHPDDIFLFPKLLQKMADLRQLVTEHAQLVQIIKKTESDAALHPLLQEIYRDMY
Sequence (P19793 whole entry, chain 2 of 2): as the sequence (P19793 whole entry, chain 2 of 2) above
In short: as §1

In order of rising binding signal:
1. B9  -0.1 PBM z-score against 500 random probes
2. B3  0.44 PBM z-score against 500 random probes
3. B4  6.69 PBM z-score against 500 random probes
4. B28  6.88 PBM z-score against 500 random probes
5. B10  7.07 PBM z-score against 500 random probes
6. B2  7.1 PBM z-score against 500 random probes
